B1: Angiopoietin-1 (Homo sapiens), Q15389 (parent)
chain: MTVFLSFAFLAAILTHIGCSNQRRSPENSGRRYNRIQHGQCAYTFILPEHDGNCRESTTDQYNTNALQRDAPHVEPDFSSQKLQHLEHVMENYTQWLQKLENYIVENMKSEMAQIQQNAVQNHTATMLEIGTSLLSQTAEQTRKLTDVETQVLNQTSRLEIQLLENSLSTYKLEKQLLQQTNEILKIHEKNSLLEHKILEMEGKHKEELDTLKEEKENLQGLVTRQTYIIQELEKQLNRATTNNSVLQKQQLELMDTVHNLVNLCTKEGVLLKGGKREEEKPFRDCADVYQAGFNKSGIYTIYINNMPEPKKVFCNMDVNGGGWTVIQHREDGSLDFQRGWKEYKMGFGNPSGEYWLGNEFIFAITSQRQYMLRIELMDWEGNRAYSQYDRFHIGNEKQNYRLYLKGHTGTAGKQSSLILHGADFSTKDADNDNCMCKCALMLTGGWWFDACGPSNLNGMFYTAGQNHGKLNGIKWHYFKGPSYSLRSTTMMIRPLDF

Variants of: B1
Details: with tie2_human TEK

Row | Variant | effect of a mutation on the interaction
1 | MTVFLSFAFLAAILTHIGCSNQRRSPENSGRRYNRIQHGQCAYTFILPEHDGNCRESTTDQYNTNALQRDAPHVEPDFSSQKLQHLEHVMENYTQWLQKLENYIVENMKSEMAQIQQNAVQNHTATMLEIGTSLLSQTAEQTRKLTDVETQVLNQTSRLEIQLLENSLSTYKLEKQLLQQTNEILKIHEKNSLLEHKILEMEGKHKEELDTLKEEKENLQGLVTRQTYIIQELEKQLNRATTNNSVLQRQQLELMDTVHNLVNLCTKEGVLLKGGKREEEKPFRDCADVYQAGFNKSGIYTIYINNMPEPKKVFCNMDVNGGGWTVIQHREDGSLDFQRGWKEYKMGFGNPSGEYWLGNEFIFAITSQRQYMLRIELMDWEGNRAYSQYDRFHIGNEKQNYRLYLKGHTGTAGKQSSLILHGADFSTKDADNDNCMCKCALMLTGGWWFDACGPSNLNGMFYTAGQNHGKLNGIKWHYFKGPSYSLRSTTMMIRPLDF [K249R] | with no effect

— IntAct's records for PubMed 29106382
